Measurements: patent US9909188B2, “Methods and compositions involving lincRNA and leukemia” (THE REGENTS OF THE UNIVERSITY OF CALIFORNIA, priority 2013, dated 2018)

Columns and labels:
BALIR-2 [1] = assay: Effect of prednisolone on BALIR-2 expression in human B-ALL cell lines (RT-qPCR); format: cell-based
Experimental: (§1) To measure proliferation, cells were cultured for 3-5 days before plating. Reagents were added according to the manufacturer's instructions (Promega CellTiter 96 AQueous Non-Radioactive Cell Proliferation Assay kit) and cells were incubated at 37°, 5% CO2 for 4 hours before absorbance was measured at 490 nm. To measure apoptosis, cells were plated and treated with 100 ng/mL doxorubicin or 250 μg/mL prednisolone in DMSO and incubated at 37° C. and 5% CO2. An untreated group and DMSO-treated group were included as controls. Cells were harvested after 24 hours and lysed with buffer supplied by Biovision. Protein concentrations were normalized after measurement by Bradford assay. Reagents were added according to the manufacturer's instructions (Biovision Caspase-3 Colorimetric Assay kit) and absorbance was measured at 405 nm. To observe the effects of prednisolone on lincRNA expression, untransduced cell lines were plated and treated with either 250 μg/mL prednisolone in DMSO or DMSO alone as a control. Cells were incubated at 37° C. and 5% CO2 for 24 hrs. Cells were collected and RNA was extracted using Trizol reagent (Invitrogen).
(§2) RNA collected from samples was reverse transcribed using qScript reagent (Quanta Biosciences). Real Time quantitative PCR was performed with the StepOnePlus Real-Time PCR System (Applied Biosystems) using PerfeCTa SYBR Green FastMix reagent (Quanta Biosciences).

RS411 cell line [2] = assay: Apoptosis, caspase-3 activity, RS411; format: cell-based, human; settings: for apoptosis measured by caspase-3 activity: RS411 stably transduced
Experimental: as §1, with “To measure apoptosis, cells were plated and treated with 100 ng/mL doxorubicin or 250 μg/mL prednisolone in DMSO and incubated at 37° C. and 5% CO2.” left out

[3] = test system: glucocorticoid receptor signaling pathway; assay: Expression of glucocorticoid response genes in RS4;11 cells (microarray, RT-qPCR); format: cell-based, human
Experimental: as §2
Several of these clusters consist of genes involved in the glucocorticoid receptor signaling pathway, confirmed by functional annotation results (2-4 fold increases in FOS, HSPA6, SGK1, IL8, JUN, SERPINE1, CDKN1A and ICAM1 in siRNA group, both with and without prednisone treatment; FIGS. 13B and 13C). We confirmed knockdown of BALIR-2 and upregulation of FOS, JUN, SGK1 and SERPINE1 (FIG. 13D-F and FIG. 18E-F) by RT-qPCR. […] We also observed upregulation of the pro-apoptotic protein BIM in both knockdown and prednisolone-treated cells, which is a downstream target of JUN and an important mediator of glucocorticoid-induced apoptosis of lymphocytic cells (Heidari, et al, 2012) (FIGS. 13G and 13K).

Balir-2 [4] = assay: Balir-2 expression in 70Z/3 mouse cell line (RT-qPCR, normalized to L32); format: cell-based; settings: 70Z/3 cells, 6 hrs
Experimental: as §2
(§3) RACE was performed and two products were identified at this locus (FIG. 16E). We generated miRNA-formatted siRNAs (Rao, et al., 2010) against the mapped murine transcript and confirmed decreased expression in the murine pre-B cell line 70Z/3 (FIG. 14B). […] Similar to what we observed in human cell lines, Balir-2 knockdown led to an upregulation of Jun and Fos in all three of the cell lines with upregulation of Bim in two out of three cell lines (FIG. 14D-F). We further confirmed the upregulation of these proteins by western blot analysis (FIG. 14G). […] We also examined the effects of BALIR-2 expression in a second human B-ALL cell line, Reh (FIG. 18K-R), utilizing a novel method to target the transcript. Based on the method of Ulitsky et al, we generated a siRNA-like sequence within our miRNA formatted vector, targeting the splice junction of the BALIR-2 transcript (Ulitsky, et al., 2011).

[5] = test system: glucocorticoid response genes Fos, Jun and Bim; assay: Expression of glucocorticoid response genes Fos, Jun and Bim in 70Z/3 cells (RT-qPCR, Western blot); format: cell-based, mouse
Experimental: as §2, §3

70Z/3 cells = assay: Apoptosis in 70Z/3 cells (caspase-3 activity); format: cell-based, mouse
BALIR-2 [6] = assay: siRNA-mediated knockdown of BALIR-2 in human B-ALL cell lines (RT-qPCR, normalized to Actin); format: cell-based
Experimental: We designed two complementary “linker” strands containing restriction sites for BamHI (5′ intact), XhoI, XbaI, NheI, ApaI and BamHI (3′ mutated) as follows: 5′-[…]-3′ (forward) (SEQ ID NO. 11), 5′-[…]-3′ (reverse) (SEQ ID NO. 12). The oligonucleotides were ordered through Invitrogen and modified with 5′-phosphate groups. The complementary strands were annealed by heating to 100° C. and slowly cooling in a water bath. The pHAGE2-CMV-ZsGreen-W vector (previously described in (O'Connell, 2010)) was digested with BamHI (Fermentas) and the linker was ligated in using T4 DNA ligase (Fermentas). Colonies were sequenced (Laragen) to determine the correct orientation and verify the sequence of the insert and mutation of the 3′ BamHI site. miRNA-formatted siRNAs were cloned into BamHI and ApaI or XhoI in the P2CZL vector, using the strategy that we have previously described to generate knockdown vectors against protein coding genes (O'Connell, 2009; Rao, 2010).
All lentiviruses were produced by transfecting 293T adherent cells with knock-down vectors as listed in Table 1, using BioT transfection agent (Bioland Scientific). 2.5×10^5 293T cells were co-transfected in trans using an advanced generation lentiviral system in 6 well plates for 48 hours as described previously (O'Connell, 2010). At 48 hours, the viral supernatant was collected, filtered and used for spin infection of B-ALL cell lines. 5.0×10^5 cells were spin-infected at 30° C. for 90 minutes in the presence polybrene (4 μg/mL). Transduced cells were sorted for high ZsGreen expression as described above.
as §2

RS411 cell line [7] = assay: Cell proliferation, MTS assay, RS411; format: cell-based, human; settings: RS411 stably transduced with siRNA
Experimental: as §1

[8] = RS411 cell line, stably transduced

In the case of `C[C@]12C=CC(=O)C=C1CC[C@@H]1[C@@H]2[C@@H](O)C[C@@]2(C)[C@H]1CC[C@]2(O)C(=O)CO` [prednisolone], the “BALIR-2 expression after prednisolone treatment” value (BALIR-2 [1]; RS4;11 cells) is reported as “repressed”, the “decrease in expression of BALIR-2 following treatment” value (BALIR-2 [1]; RS411 and NALM6 cell lines treated with prednisolone) is reported as 30-50% and the “apoptosis after prednisolone treatment” value (RS411 cell line [2]; RS4;11 cells) is reported as “induction of apoptosis”. For the same molecule, the “expression of FOS and JUN after prednisolone treatment” value ([3]; RS4;11 cells) was “increased expression”, the “expression of pro-apoptotic protein BIM” value ([3]; RS4;11 cells) was “upregulation” and the “Balir-2 expression upon prednisolone treatment” value (Balir-2 [4]) was “decreased”. For the same molecule, the “expression of Jun, Fos and Bim after prednisolone treatment” value [5] was “upregulation” and the “apoptosis after prednisolone treatment” value (70Z/3 cells) was “increased apoptosis”.

B1: human-miR155-formatted siRNA2: human-miR155-formatted siRNA2 against BALIR-2; SEQ ID NO:34/44, printed as siRNA1-human155f (nucleic acid)
chain 1: GTAGGCTGTATGCTGTTTACTGAAATCTCCTAGGTGGTTTTGGCCACTGACTGACCACCTAGGATTTCAGTAAATGTATGATGCCTG
chain 2: TTTACTGAAATCTCCTAGGTG
modifications: expressed or natural sequence
In the case of B1, the “knockdown of BALIR-2” value (BALIR-2 [6]; [8]) is reported as “do not knock down”.

B2: siRNA3: miR-155 formatted siRNA oligo against BALIR-2; SEQ ID NO:31/41 (nucleic acid)
chain 1: GTAGGCTGTATGCTGTAAGGTAAGTGGCAGGCATTTGTTTTGGCCACTGACTGACAAATGCCTCACTTACCTTATGTATGATGCCTG
chain 2: TAAGGTAAGTGGCAGGCATTT
modifications: expressed or natural sequence
In the case of B2, the “knockdown of BALIR-2” value (BALIR-2 [6]; [8]) is reported as “do not knock down”.

B3: siRNA4: miR-155 formatted siRNA oligo against BALIR-2; SEQ ID NO:32/42 (nucleic acid)
chain 1: GTAGGCTGTATGCTGTTTCACGGTGTGGCAGCTTTCGTTTTGCCTCCAACTGAGAAAGCTGACACCGTGAAATGTATGATGCCTG
chain 2: TTTCACGGTGTGGCAGCTTTC
modifications: expressed or natural sequence
With B3 the “knockdown of BALIR-2” value (BALIR-2 [6]; [8]) was “do not knock down”.

B4: siRNA1: miR-155 formatted siRNA oligo against BALIR-2; SEQ ID NO:29, targeting sequence SEQ ID NO:39 (nucleic acid)
chain: GAAGGCTGTATGCTGAGATTAGGTTGGCATGATTCTGTTTTGGCCACTGACTGACAGAATCATCAACCTAATCTCAGGACACAAGGCCTG
modifications: expressed or natural sequence
In the case of B4, the “knockdown of BALIR-2” value (BALIR-2 [6]; NALM6 cell line) is reported as “do not knock down” and the “cell proliferation (MTS assay)” value (RS411 cell line [7]) is reported as “reduced”.

B5: siRNA2: miR-155 formatted siRNA oligo against BALIR-2; SEQ ID NO:30, targeting sequence SEQ ID NO:40 (nucleic acid)
chain: GAAGGCTGTATGCTGTTTACTGAAATCTCCTAGGTGGTTTTGGCCACTGACTGACCACCTAGGATTTCAGTAAACAGGACACAAGGCCTG
modifications: expressed or natural sequence
B5 was tested, and the “knockdown of BALIR-2” value (BALIR-2 [6]; NALM6 cell line) was “do not knock down”, the “knockdown of BALIR-2” value (BALIR-2 [6]; [8]) was “greatest degree of knockdown” and the “apoptosis measured by caspase-3 activity” value (RS411 cell line [2]; DMSO) was “Increased apoptosis”. The “apoptosis measured by caspase-3 activity” value (RS411 cell line [2]; no treatment) was “Increased apoptosis”, the “increases in FOS, HSPA6, SGK1, IL8, JUN, SERPINE1, CDKN1A and ICAM1 in siRNA group” value ([3]; RS4;11, microarray, both with and without prednisone treatment) was 2-4 fold and the “expression of FOS, JUN, SGK1 and SERPINE1 by RT-qPCR after knockdown” value ([3]; RS4;11 cells) was “upregulation”. For the same molecule, the “expression of pro-apoptotic protein BIM” value ([3]; RS4;11 cells) was “upregulation”.

B6: human-miR155-formatted siRNA1: human-miR155-formatted siRNA1 against BALIR-2; SEQ ID NO:33/43 (nucleic acid)
chain 1: GTAGGCTGTATGCTGAGATTAGGTTGGCATGATTCTGTTTTGGCCACTGACTGACAGAATCATCAACCTAATCTTGTATGATGCCTG
chain 2: AGATTAGGTTGGCATGATTCT
modifications: expressed or natural sequence
In the case of B6, the “knockdown of BALIR-2” value (BALIR-2 [6]; [8]) is reported as “do not knock down”.
